Laboratory results published in paper PMC10272179, “Structural insight into the human SID1 transmembrane family member 2 reveals its lipid hydrolytic activity” (Nature Communications, 2023).

B1: human SIDT2 (SID1 transmembrane family member 2) (Homo sapiens) (protein)
chain: HLGVLGPKNVSQKDAEFERTYVDEVNSELVNIYTFNHTVTRNRTEGVRVSVNVLNKQKGAPLLFVVRQKEAVVSFQVPLILRGMFQRKYLYQKVERTLCQPPTKNESEIQFFYVDVSTLSPVNTTYQLRVSRMDDFVLRTGEQFSFNTTAAQPQYFKYEFPEGVDSVIVKVTSNKAFPCSVISIQDVLCPVYDLDNNVAFIGMYQTMTKKAAITVQRKDFPSNSFYVVVVVKTEDQACGGSLPFYPFAEDEPVDQGHRQKTLSVLVSQAVTSEAYVSGMLFCLGIFLSFYLLTVLLACWENWRQKKKTLLVAIDRACPESGHPRVLADSFPGSSPYEGYNYGSFENVSGSTDGLVDSAGTGDLSYGYQGRSFEPVGTRPRVDSMSSVEEDDYDTLTDIDSDKNVIRTKQYLYVADLARKDKRVLRKKYQIYFWNIATIAVFYALPVVQLVITYQTVVNVTGNQDICYYNFLCAHPLGNLSAFNNILSNLGYILLGLLFLLIILQREINHNRALLRNDLCALECGIPKHFGLFYAMGTALMMEGLLSACYHVCPNYTNFQFDTSFMYMIAGLCMLKLYQKRHPDINASAYSAYACLAIVIFFSVLGVVFGKGNTAFWIVFSIIHIIATLLLSTQLYYMGRWKLDSGIFRRILHVLYTDCIRQCSGPLYVDRMVLLVMGNVINWSLAAYGLIMRPNDFASYLLAIGICNLLLYFAFYIIMKLRSGERIKLIPLLCIVCTSVVWGFALFFFFQGLSTWQKTPAESREHNRDCILLDFFDDHDIWHFLSSIAMFGSFLVLLTLDDDLDTVQRDKIYVF
notes: full-length (832 residues, with signal peptide), C-terminal FLAG and His8 tags, expressed in HEK293F, purified in GDN; homodimer
B2: human SID1 transmembrane family member 2 (SIDT2), full-length (natural protein, UniProt Q8NBJ9 19-832, looked up)
chain: B1 chain
modifications: N-linked glycans resolved at N27, N54, N60, N123, N141 and N165
notes: SIDT2, human, full-length cDNA; 832-amino acid protein with a signal peptide, BRD1 (23-152), BRD2 (157-287), CTD between TM1 and TM2, and eleven TMs; Expressed from the full-length cDNA with its own signal peptide; also called apoSIDT2-pH 7.4; apoSIDT2-pH 5.5

Key:
[1] = substrate: CCCCCCCCCCCCC/C=C/[C@@H](O)[C@H](CO)NC(=O)CCCCCCCCCCCCCCCCC; assay: LC-MS quantification of sphingosine, Michaelis-Menten fit; format: biochemical, Homo sapiens; details: 0.3 μM enzyme, 25 mM Tris pH 8.0, 150 mM NaCl, 0.02% DDM, 0.002% CHS micelles, room temperature, 30 min
[2] = biological target: the molecule itself; assay: cryo-EM structure; purified SIDT2 in GDN micelles; three samples: pH 7.4 (HEPES, 150 mM NaCl), pH 5.5 (MES) and pH 5.5 plus miRNA2911 (RNA:protein 5:1); refinement with C2 symmetry; no conformational change between the three

Protein | Km [1] | kcat [1] | stoichiometry N [2]
B1 | 9.0 µM | 0.00012 s⁻¹ | –
B2 | – | – | 2
